The target in one experiment is human MAL (human) (UniProt P58753). Description: P3 phage display panning on plate-immobilised MAL, after round 4, NGS.
The target in experiment [1] is human MyD88 (human) (UniProt Q99836). Nature of the experiment: P3 phage display panning on plate-immobilised MyD88, after round 4, NGS.
For experiment [2] the target is unchanged. Nature of the experiment: P8 phage display panning on plate-immobilised MyD88, after round 4, NGS.

Chain of UniProt Q99836 (Q99836 155-296 limits assumed): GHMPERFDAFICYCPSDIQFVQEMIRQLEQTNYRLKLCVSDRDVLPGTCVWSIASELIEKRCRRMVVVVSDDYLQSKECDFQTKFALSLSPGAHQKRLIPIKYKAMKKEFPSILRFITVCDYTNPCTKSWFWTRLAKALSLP
Chain of UniProt P58753 (P58753 79-221 limits assumed): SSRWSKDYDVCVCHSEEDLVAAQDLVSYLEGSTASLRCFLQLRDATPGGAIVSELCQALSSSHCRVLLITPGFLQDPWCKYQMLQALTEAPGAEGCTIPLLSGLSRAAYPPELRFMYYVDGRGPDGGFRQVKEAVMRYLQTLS

In the experiment with human MAL (human), NELVHVWSSKANSLVG gave an NGS count of 1840 count and a Population of 0.69%. In the experiment with human MyD88 (human) [1], this molecule returned an NGS count of 8820 count and a Population of 2.57%.
The matching figures for KNLFNELVSKNIRTFM: 3260 count, 1.22%, 8540 count and 2.49%.
Consider MFGGDTFHDFLDLISM, for which, in the experiment with human MyD88 (human) [2], the NGS count was 1490 count and the Population worked out at 0.57%.
The matching figures for VANILGYHWIDWEYFV: 2030 count and 0.78%.
Take DPQDLEWFYERLFSQM: in the experiment with human MyD88 (human) [2], the NGS count worked out at 4490 count and the Population is 1.73%.
In the experiment with human MAL (human), LVAHEISKKMKIFATI had an NGS count of 1670 count and a Population of 0.63%. Moreover, in the experiment with human MyD88 (human) [1], the NGS count stood at 17500 count and the Population was 5.08%.
RKGDLISDELLIAIEE: in the experiment with human MyD88 (human) [1], the NGS count is 2450 count and the Population is 0.71%.
In the experiment with human MyD88 (human) [1], NGHESEIIKEIVDTIV registered an NGS count of 4230 count and a Population of 1.23%.
The matching figures for YYLDPSHLRKQSGEFG: 2540 count and 0.74%.
On to LKVESWRQALEKAGKL, for which, in the experiment with human MAL (human), the NGS count was 5180 count and the Population came out at 2.32%. In the experiment with human MyD88 (human) [1], the NGS count is 16800 count and the Population was 4.91%.
Consider DHHLDLPRGKAIKPEILG, for which the NGS count with human MAL (human) worked out at 2280 count; in the experiment with human MyD88 (human) [1], 26700 count. In addition, the Population with human MAL (human) was 0.86%; in the experiment with human MyD88 (human) [1] it was 7.78%.
In the experiment with human MyD88 (human) [2], YLLLSVFQTIFARRTE came in with an NGS count of 7160 count and a Population of 2.76%.
As for SENYATSPWALDELVL, in the experiment with human MyD88 (human) [1], the NGS count was 5490 count and the Population was 1.89%.
For the molecule GFLYQAFAREGFKIFM, in the experiment with human MAL (human), the NGS count is 1760 count and the Population was found to be 0.66%. Besides, in the experiment with human MyD88 (human) [1], the NGS count worked out at 2580 count and the Population worked out at 0.75%.
For the molecule FLSYRALEKRFGPIGQ, in the experiment with human MyD88 (human) [1], the NGS count was determined as 3290 count and the Population amounted to 0.96%.
The matching figures for TSHLHHALRLNKIETF: 2080 count and 0.6%.
In the experiment with human MyD88 (human) [2], DYASSTWWLRELLQIA registered an NGS count of 4110 count and a Population of 1.58%.
As for SAAYDDFWDRLIRMIE, in the experiment with human MyD88 (human) [2], the NGS count is 5340 count and the Population stood at 2.06%.
The matching figures for LEANDSLFWDRLLYSL: 1460 count and 0.56%.
The matching figures for YAASPWWFDELVKIVG: 3430 count and 1.32%.
In the experiment with human MyD88 (human) [2], YLRADDSWFWEKLLYA registered an NGS count of 4070 count and a Population of 1.57%.
In the case of PSEVRKQTGSLAKAFA, in the experiment with human MyD88 (human) [1], the NGS count stood at 2250 count and the Population was determined as 0.66%.
Consider IDDDHLTYLVRLLLSR, for which, in the experiment with human MyD88 (human) [2], the NGS count turned out to be 3060 count and the Population was 1.18%.
The matching figures for DPQDLDWFYERLVSLL: 13100 count and 5.06%.
Take HLLKEFDKKLITAFKD: in the experiment with human MyD88 (human) [1], the NGS count amounted to 2400 count and the Population stood at 0.7%.
In the experiment with human MyD88 (human) [2], DWVWEHFFPMEEKDQT returned an NGS count of 1540 count and a Population of 0.59%.
The matching figures for DSLFWDRLLYSLHVTE: 7590 count and 2.92%.
As to EWIREQLRPALKERLP, the NGS count came out at 2350 count with human MAL (human) and 16800 count in the experiment with human MyD88 (human) [1]. Moreover, the Population with human MAL (human) worked out at 0.88%; in the experiment with human MyD88 (human) [1], 4.9%.
In the experiment with human MyD88 (human) [1], SELRVVDDGSVSPLEM yielded an NGS count of 4870 count and a Population of 1.42%.
In the experiment with human MAL (human), YAFTGHLHRYLVQRGV yielded an NGS count of 43800 count and a Population of 16.4%. Moreover, in the experiment with human MyD88 (human) [1], the NGS count was 13400 count and the Population was found to be 3.91%.
In the experiment with human MyD88 (human) [2], WALDELLQILHARELF gave an NGS count of 14400 count and a Population of 5.55%.
Consider AVDKETDKIQTPLKNA, for which, in the experiment with human MyD88 (human) [1], the NGS count stood at 4790 count and the Population came to 1.39%.
In the experiment with human MyD88 (human) [2], WDFASNMEQFWDRLYY returned an NGS count of 7350 count and a Population of 2.83%.
The matching figures for YASYDDNDYYWVTHVLLRHL: 5890 count and 2.66%.
Take KEVEGWRDALTKVASL: the NGS count in the experiment with human MAL (human) came out at 3760 count; with human MyD88 (human) [1] it was 5190 count. Further, the Population with human MAL (human) worked out at 1.41%; with human MyD88 (human) [1], 1.8%.
In the experiment with human MyD88 (human) [2], VQWDDPWFWDKLAYAM gave an NGS count of 4900 count and a Population of 1.89%.
In the experiment with human MAL (human), SSFREGLWRLLELSKK returned an NGS count of 30000 count and a Population of 11.3%. For the same molecule, in the experiment with human MyD88 (human) [1], the NGS count came to 79500 count and the Population came out at 23.1%.
In the experiment with human MyD88 (human) [2], GLSWGPYEWWMGLYDA yielded an NGS count of 1960 count and a Population of 0.76%.
In the experiment with human MyD88 (human) [2], SPQEQDGFWVRLIEAL came in with an NGS count of 1840 count and a Population of 0.71%.
In the experiment with human MyD88 (human) [1], YTALTNSGFHTFRDND returned an NGS count of 17600 count and a Population of 5.12%.
The matching figures for PEKDNGGENAFINNIV: 2500 count and 0.73%.
In the experiment with human MyD88 (human) [2], WALDELLKILYANETM showed an NGS count of 10500 count and a Population of 4.05%.
The matching figures for HWIDWEYFVGIEDHIK: 3420 count and 1.32%.
On to LKWGDPYFWSKLRYAM, for which the NGS count with human MAL (human) came to 5130 count; in the experiment with human MyD88 (human) [1], 8310 count. Further, the Population in the experiment with human MAL (human) was 1.93%; with human MyD88 (human) [1], 2.42%.
Regarding PQDLEWFYERLVSLIL, in the experiment with human MyD88 (human) [2], the NGS count worked out at 10600 count and the Population stood at 4.07%.
For YASSSWALDELLRILY, in the experiment with human MyD88 (human) [2], the NGS count was determined as 2330 count and the Population stood at 0.9%.
For DPQDLQWFYERLVSLI, in the experiment with human MyD88 (human) [2], the NGS count turned out to be 5730 count and the Population was 2.21%.

The record behind these values is EP4613859A1, “TLR SIGNALING INHIBITORY PEPTIDE AND COMPOSITION INCLUDING SAME FOR PREVENTION OR TREATMENT OF INFLAMMATORY DISEASES” (Korea Institute of Science and Technology, priority 2022, dated 2025).
